These results are taken from patent US20240382513A1.

This experiment has as its target transferrin receptor (on Hepa 1-6 cells; in tissues of C57BL/6 wild-type mice) (mouse) (UniProt Q62351). The experiment in a line: cell-based or functional assay.
UniProt Q62351, sequence (Q62351 whole entry): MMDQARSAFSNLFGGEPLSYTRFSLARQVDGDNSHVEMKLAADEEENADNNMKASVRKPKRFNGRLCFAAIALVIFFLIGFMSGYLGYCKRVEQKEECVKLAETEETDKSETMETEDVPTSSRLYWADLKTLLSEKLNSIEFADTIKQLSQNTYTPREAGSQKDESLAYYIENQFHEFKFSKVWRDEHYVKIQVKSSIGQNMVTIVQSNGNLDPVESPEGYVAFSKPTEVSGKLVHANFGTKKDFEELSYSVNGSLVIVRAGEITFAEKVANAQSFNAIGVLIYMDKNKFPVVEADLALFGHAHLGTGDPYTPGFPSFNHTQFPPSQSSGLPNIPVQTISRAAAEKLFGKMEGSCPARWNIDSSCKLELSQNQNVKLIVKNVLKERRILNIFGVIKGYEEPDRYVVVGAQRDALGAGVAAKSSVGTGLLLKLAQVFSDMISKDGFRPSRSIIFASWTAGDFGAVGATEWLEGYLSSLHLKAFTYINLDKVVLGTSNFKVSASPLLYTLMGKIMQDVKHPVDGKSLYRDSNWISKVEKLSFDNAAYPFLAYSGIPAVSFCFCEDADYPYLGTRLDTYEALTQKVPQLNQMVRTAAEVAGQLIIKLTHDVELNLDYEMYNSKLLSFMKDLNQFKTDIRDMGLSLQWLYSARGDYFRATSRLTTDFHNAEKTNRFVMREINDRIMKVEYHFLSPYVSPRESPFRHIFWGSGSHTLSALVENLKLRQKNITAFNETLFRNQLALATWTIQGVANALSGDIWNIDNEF

“antiTfR-siHPRT complex: RI7 217 anti-TfR1 Fab (DTX-A-002) covalently linked via a non-cleavable GMBS linker to the HPRT siRNA (siHPRT)” came in with an HPRT expression in gastrocnemius of C57BL/6 mice, three days after a single i.v. dose (2 mg/kg of RNA) of 31%; an HPRT expression in heart of C57BL/6 mice, three days after a single i.v. dose (2 mg/kg of RNA) of 30%; a decrease in HPRT expression in Hepa 1-6 cells after 72 hour incubation with 100 nM complex of 50%.
